Reference: the supplement of paper PMC10126150
± gives the standard deviation of the averaged measurements.

Test system: ATP
Experiment: switch fluorescence ratio, 500 uM ATP over buffer (Cy3 cluster intensity, sum of 5 cycles each) (fold (ratio)); higher = stronger signal-on switching upon ATP binding; sequences stand for … in TCGTCGGCAGCGTCAGATGTGTATAAGAGACAGTTTTTTTTTTTTTTTTTTTTTTTTT…TC
Details: aptamer strand: ATP DNA aptamer (quencher-CACCTGGGGGAGTATTGCGGAGGAAGG + anchor), 100 nM annealed; ATP concentration: 500 uM
Summary of the method: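 Switching-strand clusters labelled with Cy3 on a modified Illumina MiSeq flow-cell were annealed to 100 nM quencher-labelled ATP aptamer, imaged in selection buffer, and re-imaged after 15 min with 500 uM ATP at 22 °C. This was done over five cycles with NaOH stripping and re-annealing in between. The fluorescence ratio is summed target-cycle over summed buffer-cycle Cy3 intensity per cluster, averaged per switch-domain sequence, excluding clusters outside 100-1000 RFU.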
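Note: ATP exposure 15 min at 22 °C before imaging.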

Row | Sequence | switch fluorescence ratio
1 | GCTGCTTAGC | 1.02 ± 0.018
2 | GCTGCTTGGG | 1.01 ± 0.019
3 | GCTGGAAGTA | 0.97 ± 0.046
4 | GCTGGAATAT | 1 ± 0.039
5 | GCTGGAATTG | 1 ± 0.0077
6 | GCTGGACTCG | 1.053 ± 0.0015
7 | GCTGGACTTG | 0.998 ± 0.053
8 | GCTGGAGGAC | 0.996 ± 0.032
9 | GCTGGAGGGG | 0.985 ± 0.018
10 | GCTGGATTGG | 0.965 ± 0.016
11 | GCTGGGAGGC | 0.947 ± 0.071
12 | GCTGGGCCGA | 1.01 ± 0.036
13 | GCTGGGGAAA | 0.996 ± 0.032
14 | GCTGGGGGAA | 0.98 ± 0.019
15 | GCTGGGGTTT | 0.996 ± 0.043
16 | GCTGGGTCTG | 1 ± 0.017
17 | GCTGGGTGTG | 1.03 ± 0.011
18 | GCTGGTACAG | 1 ± 0.022
19 | GCTGGTACTG | 0.986 ± 0.037
20 | GCTGGTAGTT | 0.995 ± 0.028
21 | GCTGGTGTGG | 0.995 ± 0.011
22 | GCTGGTTAGG | 1 ± 0.032

Row | Sequence | switch fluorescence ratio
23 | GCTGGTTCTG | 0.982 ± 0.054
24 | GCTGGTTGAC | 0.981 ± 0.017
25 | GCTGGTTGGG | 0.98 ± 0.014
26 | GCTGTAAGAA | 1.01 ± 0.037
27 | GCTGTACGCT | 0.9539 ± 0.0027
28 | GCTGTACTCA | 1.43 ± 0.13
29 | GCTGTAGACT | 0.992 ± 0.038
30 | GCTGTAGGGC | 1.015 ± 0.0034
31 | GCTGTAGTGG | 0.998 ± 0.051
32 | GCTGTAGTTG | 0.993 ± 0.019
33 | GCTGTCTATC | 1.01 ± 0.027
34 | GCTGTGGCGT | 1.02 ± 0.04
35 | GCTGTGGGGG | 0.966 ± 0.013
36 | GCTGTTAGTG | 0.98 ± 0.013
37 | GCTGTTCCCG | 1.04 ± 0.071
38 | GCTGTTCTTC | 0.985 ± 0.013
39 | GCTTAAACGG | 1.02 ± 0.073
40 | GCTTAAAGGC | 1.01 ± 0.03
41 | GCTTACGTCA | 1.05 ± 0.086
42 | GCTTAGGGGG | 1.031 ± 0.0069
43 | GCTTAGTTGT | 1.015 ± 0.0065
44 | GCTTATATAT | 0.98542 ± 0.00086

Row | Sequence | switch fluorescence ratio
45 | GCTTATATTT | 1.045 ± 0.0055
46 | GCTTCCTGCC | 1.4 ± 0.027
47 | GCTTCTATTG | 1.001 ± 0.00067
48 | GCTTCTGCCT | 1 ± 0.013
49 | GCTTCTTAGT | 1.028 ± 0.0053
50 | GCTTGACG | 1.004 ± 0.01
51 | GCTTGATGAA | 1.034 ± 0.0013
52 | GCTTGATTAG | 0.9963 ± 0.0018
53 | GCTTGATTGG | 1.04 ± 0.019
54 | GCTTGGCAAC | 1.02 ± 0.012
55 | GCTTGGCTGT | 0.999 ± 0.017
56 | GCTTGGGGGT | 0.987 ± 0.018
57 | GCTTGTAGTT | 0.9865 ± 0.0072
58 | GCTTGTGCAT | 0.989 ± 0.028
59 | GCTTGTTTGG | 0.961 ± 0.013
60 | GCTTGTTTTT | 0.997 ± 0.018
61 | GCTTTAGAGA | 0.985 ± 0.019
62 | GCTTTCGGGC | 1.01 ± 0.045
63 | GCTTTCGTTA | 1.018 ± 0.0071
64 | GCTTTTCGAT | 0.994 ± 0.035
65 | GCTTTTGCCG | 0.993 ± 0.036
66 | GCTTTTGCGG | 0.981 ± 0.045

Row | Sequence | switch fluorescence ratio
67 | GCTTTTTAGT | 1.006 ± 0.0021
68 | GCTTTTTCCA | 0.975 ± 0.035
69 | GCTTTTTGC | 0.951 ± 0.065
70 | GCTTTTTGTA | 0.981 ± 0.032
71 | GCTTTTTGTC | 1.06 ± 0.013
72 | GGAAAAGTTT | 0.986 ± 0.04
73 | GGAAAATAAT | 1.01 ± 0.035
74 | GGAAAATGTA | 1.023 ± 0.0063
75 | GGAAAATTTT | 0.994 ± 0.033
76 | GGAAAGATGT | 1.01 ± 0.027
77 | GGAAAGATTG | 0.991 ± 0.041
78 | GGAAAGCGTG | 0.993 ± 0.084
79 | GGAAAGGGGT | 1.03 ± 0.082
80 | GGAAAGTAGG | 1.01 ± 0.046
81 | GGAAATATCG | 0.989 ± 0.021
82 | GGAAATGAAT | 1.02 ± 0.029
83 | GGAAATTGGG | 0.994 ± 0.016
84 | GGAACAAGGT | 0.988 ± 0.059
85 | GGAACCCGTG | 0.997 ± 0.048
